Laboratory results from paper PMC8807876.

Biological target: TopBP1 (UniProt Q92547)
Test: anti-GFP nanobody IP, TopBP1 immunoblot
Conditions: reference: wild type; sites T969,S1001

For “Treslin/TICRR (from UniProt Q7Z2Z1) 2PM (T969A/S1001A)”, the “binding against the reference” value was “lost”.
